Test results: the DeepSol protein solubility set

Test: soluble on expression in E. coli; label from the status in PepcDB or PDB records

Sequence | soluble on expression in E. coli
MSLDIHDILVIDDSRLQRQHAMDLCRQLGIASVREAPDGERGLTLMRVQMPDLLLLDLEMPKQDGVQVMQEMARAGLSSPVIITSGKDYLLISTVELMGRELGLPVLGCLQKPLQLPALLDLMHRVWTPAERPDDAPLAADEVRVALEKGQIIPYYQPKVNLADGRVKGAEMLARWQHPDLGLIPPSRFIPVIEDNGWATELTMLMLRQGLTQWQEWARHGLRLPLSVNLSALSLRGDELVDEIECYVRGSHVPARFIIFEVTETAIVDNLAQAIGCAVRLRLAGLGLSIDDFGTGFATLQQLTRFPFTELKIDQSLVTGISDKPHLQAVFNSIIEMARRLQLATVAEGIETAEDYQLMAERGCQLGQGYYFARPLPAAAFLEWTRQPPVLPTAGEGHHHHHH | not soluble
QALEYSGTKRFVYVIDENNKATRQEVLLGARVDNEVVIESGVEIGDKIVVQGIVNMRDGVEVKEIVAPLKANTTDVTRNDSESVEEEN | not soluble
MHLELHQINGNDPLGTIIGERNYQLPIPLPYTMKTVKQIHSGIWHTVIRGYDQYNRPQIATFGKNYDGQLGTGDCENRDTPTPIKLPPEMLTFHAIQTGFFHTIATGLDKNGFPIVASCGYNSDGQLGCGDKDNKNTLIPIKLPENMKSVEMVATGVKHTVIVGKDINNKPVVATCGHNGYGQLGTGDEENRLCLTPIGIPEDITSVDYVGAGAYHTVICGRNIKNQPIITLCGCNSDGELGFAPQKIAKKSSLMTNPAMFFPPRQDKSAINNLMKISKFSPCNLL | not soluble
MTALISISLLLVTFAGAAEMCAPVTQHSTPQSDVPSTVTITFHKLETSTTTKDEILNAIRTSHPDVHATGEPIDKKSIKVTLTAVSCVTAMKLAEEVLNAGTPVVLNAYAMLCDGEISTNIKP | soluble
MGSDKIHHHHHHMSALVDPVTDTDLDAYVDDQLDVTRRIEVEAFLSTRPEAAARVMSDLRTRDELRVALAGSKGMARPATADAARRLERGLARGRIFGVLQRSAAVAAFVAAGWLANGIIGPMSVTKVVASPQPPAYVDEAVRAHRTTLVRETMPSQPEAPNYSAGEIRAATAIVMPSLPKDWKVRDVQIYPSRFGPSVEMAVDTKDMGLVSLFAIRPGTFDVVKPTVAPSGDISSAYFQIGEVAYAVVAKSGVRDLDRAAETLARTLY | not soluble
MTNTLVENIYASVTHNISKKEASKNEKTKAVLNQAVADLSVAASIVHQVHWYMRGPGFLYLHPKMDELLDSLNANLDEVSERLITIGGAPYSTLAEFSKHSKLDEAKGTYDKTVAQHLARLVEVYLYLSSLYQVGLDITDEEGDAGTNDLFTAAKTEAEKTIWMLQAERGQGPAL | soluble
MGSDKIHHHHHHMSRLIEQIKQKDACAFTHGGKFHADDVFSSALLLYINPEISITRGNSVPDDFTGIVFDIGRGEFDHHQKDSRIRENGVPYAAFGLLWEAVGADILGKELAVKFDESFVQPLDNNDNTGEKNELATLIGNFNPSWDYEGGSDEAFFQAVSVAGMILENKFERYRGNERADKRVEEVLAKHDPASRILVLPEFIPCQKALSETDIAFVIFPSNRGGFCIQPQKREYSMNYKCSFPAEWLGLEGEELVNATGIPGAIFCHKGGFIMTVKEQDEAVKACEKALSLHKDSSVIVWYGSKGDTAAMACDSQTDELLINVAKARGIKGVHICHVDAMPVPQLELTELDSETAYAEVLMEKPQWKAYVKEQVKQIVKYRPEAVYVEGNAFETYPVIRALRKKHIPVLTMIENKEKKIMVRIP | not soluble
MGSDKIHHHHHHMNIELADLRLFVMIAECGNLTHGAARAFLSPPAASARIKAMEQEIGQQLLVRKNKGVELTPSGDALLRHARLVLRQFDFLTDDMTNAQMGHLRIYANTTGVTEFLPAILARFLADHPGVRVDLQERLTQEIIRAVADGTADIGIISGTEGRDGLERLRFATDRLMLAVPSGHHLAHHDQVSLEQTLAFEHIALHDGSTLLDFLRRQLRRSAFDRQLRIQVRSFEAMCRLIEAGVGIGVVPESAALRHLQTMDITLLALADDWAVRDRSILVRRWADLPQSAQRLIDLLVEKEAGGAEV | not soluble
MLAKRIIPCLDVDKGRVVKGVKFLNLRDAGDPVEVAKRYEEEGADELVFLDITASAEDREIMIDVVKKVAETVFMPFTVGGGIRSLEDMRRLLEAGADKISINTAAVKNPNLIYEGAKRFGSQCIVVAIDAKRKGNSWEVYIHGGRTPTGLDAVEWAKKVESLGAGEILLTSMDRDGTKDGYDIELNRAISEAVNIPVIASGGAGKKEHFYEVFSKTKVEAALAASVFHFREISIPELKEYLLERGINVRPLD | soluble
MDSVCPQGKYIHPQNNSICCTKCHKGTYLYNDCPGPGQDTDCRECESGSFTASENHLRHCLSCSKCRKEMGQVEISSCTVDRDTVCGCRKNQYRHYWSENLFQCFNCSLCLNGTVHLSCQEKQNTVCTCHAGFFLRENECVSCSNCKKSLECTKLCLPQIEN | soluble
MSEQLVTPENVTTKDGKINLLDLNRQQMREFFKDLGEKPFRADQVMKWMYHYCCDNFDEMTDINKVLRGKLKEVAEIRAPEVVEEQRSSDGTIKWAIAVGDQRVETVYIPEDDRATLCVSSQVGCALECKFCSTAQQGFNRNLRVSEIIGQVWRAAKIVGAAKVTGQRPITNVVMMGMGEPLLNLNNVVPAMEIMLDDFGFGLSKRRVTLSTSGVVPALDKLGDMIDVALAISLHAPNDEIRDEIVPINKKYNIETFLAAVRRYLEKSNANQGRVTIEYVMLDHVNDGTEHAHQLAELLKDTPCKINLIPWNPFPGAPYGRSSNSRIDRFSKVLMSYGFTTIVRKTRGDDIDAACGQLAGDVIDRTKRTLRKRMQGEAIDIKAV | soluble
MNILLCCSAGMSTSLLVTKMEAAAKARGLEGKIWAVSGDAVKTNIDQADVLLLGPQVRYMLSSMKTLADERNVGIDVINPMHYGMMNGEAVLDHALTLKK | not soluble
TANKRHYLEKVSHQGIISALAFDQRGALKQMMAAHQEGEATVTQIETLKVLVSEELTPYASSILLDPEYGLLATKVRANQTGLLLAYEKTGYDATTTSRLPDCLVEWSVKRLKAAGADAIKFLLYYDVDGDEQINLQKQAYIERIGSECTAEDIPFFLELLSYDERISDNNSAAYAKLKPHKVNGAMSVFSDKRFGVDVLKVEVPVNMAYVEGFTEGEVHYSQAEAIKAFQDQEAASHLPYIYLSAGVSAKLFQETLYFAAAAGAQFSGVLCGRATWAGSVPVYITKGEDEARKWLCTEGFQNIDELNRVLEETASPWTEKI | not soluble
SVTASRYYPQLMSLVGNVLRFLPAFVRMKQLISEHYVGAVMICDARIYSGSLLSPSYGWICDELMGGGGLHTMGTYIVDLLTHLTGRRAEKVHGLLKTFVRQNAAIRGIRHVTSDDFCFFQMLMGGGVCSTVTLNFNMPGAFVHEVMVVGSAGRLVARGADLYGQKNSATQEELLLRDSLAVGAGLPEQGPQDVPLLYLKGMVYMVQALRQSFQGQGDRRTWDRTPVSMAASFEDGLYMQSVVDAIKRSSRSGEWEAVEVLTEEPDTNQNLCEALQRNNL | soluble
MKFFIAFACLLAVALANEDANVLRAEQQVNVDGFAYAVELDNSVNVQQKGDLNGEEWVVKGSQSWTSPENVPVSIQYIADANGYQVVSANPPLPTPPPIPEAIQRSLEYIAAHPPSQLEHHHHHH | not soluble
MEKFLVIAGPNAIESEELLLKVGEEIKRLSEKFKEVEFVFKSSFDKANRSSIHSFRGHGLEYGVKALRKVKEEFGLKITTDIHESWQAEPVAEVADIIQIPAFLCRQTDLLLAAAKTGRAVNVKKGQFLAPWDTKNVVEKLKFGGAKEIYLTERGTTFGYNNLVVDFRSLPIMKQWAKVIYDATHSVQLPGGLGDKSGGMREFIFPLIRAAVAVGCDGVFMETHPEPEKALSDASTQLPLSQLEGIIEAILEIREVASKYYETIPVK | soluble
MSTIDFRPYGGFIFDMDGTLIDTMPAHLAAWQATADRFDFPFCQEWLHSLGGMPSFKIVAELNRHYGLSLDPQTVSKFKMETFAAMELQGDVIQCTGIVLEEYLGQKKIAVGTGSQRESAMRLLSHAGLIDRLDAVVTASDVENHKPCPDTFLLAADRLGIDAQNCLVFEDTELGKRAAHSAGMDCVMVEGNNLVFYPKR | not soluble
